In patent publication US20260167699A1 (Chugai, published 2026):

B1: GpH7-A5/GpH7-B3 variant S239_14T/GpL16-k0 (antibody, human IgG1, kappa)
heavy 1: not shown
heavy 2: not shown
light: DIVMTQSPLSLPVTPGEPASISCQASESLVHSNRNTYLHWYLQKPGQSPQLLIYKVSNRFSGVPDRFSGSGSGTDFTLKISRVEAEDVGVYYCSQNTHVPPTFGQGTKVEIERTVAAPSVFIFPPSDEQLKSGTASVVCLLNNFYPREAKVQWKVDNALQSGNSQESVTEQDSKDSTYSLSSTLTLSKADYEKHKVYACEVTHQGLSSPVTKSFNRGEC
notes: copies: 1 + 1 + 2
B2: GpH7-A5/GpH7-B3 variant S267_18N/GpL16-k0 (antibody, human IgG1, kappa)
heavy 1: not shown
heavy 2: not shown
light: B1 light
notes: copies: 1 + 1 + 2
B3: GpH7-A5/GpH7-B3 variant S324_04F/GpL16-k0 (antibody, human IgG1, kappa)
heavy 1: not shown
heavy 2: not shown
light: B1 light
notes: copies: 1 + 1 + 2
B4: GpH7-A5/GpH7-B3 variant S324_10E/GpL16-k0 (antibody, human IgG1, kappa)
heavy 1: not shown
heavy 2: not shown
light: B1 light
notes: copies: 1 + 1 + 2
B5: GpH7-A5/GpH7-B3 variant S267_10E/GpL16-k0 (antibody, human IgG1, kappa)
heavy 1: not shown
heavy 2: not shown
light: B1 light
notes: copies: 1 + 1 + 2
B6: GpH7-A5/GpH7-B3 variant S324_03V/GpL16-k0 (antibody, human IgG1, kappa)
heavy 1: not shown
heavy 2: not shown
light: B1 light
notes: copies: 1 + 1 + 2
B7: GpH7-A5/GpH7-B3 variant S324_15Y/GpL16-k0 (antibody, human IgG1, kappa)
heavy 1: not shown
heavy 2: not shown
light: B1 light
notes: copies: 1 + 1 + 2
B8: GpH7-A5/GpH7-B3 variant S298_11K/GpL16-k0 (antibody, human IgG1, kappa)
heavy 1: not shown
heavy 2: not shown
light: B1 light
notes: copies: 1 + 1 + 2
B9: GpH7-A5/GpH7-B3 variant S239_18N/GpL16-k0 (antibody, human IgG1, kappa)
heavy 1: not shown
heavy 2: not shown
light: B1 light
notes: copies: 1 + 1 + 2
B10: GpH7-A5/GpH7-B3 variant S298_12R/GpL16-k0 (antibody, human IgG1, kappa)
heavy 1: not shown
heavy 2: not shown
light: B1 light
notes: copies: 1 + 1 + 2
B11: GpH7-A5/GpH7-B3 variant S267_02A/GpL16-k0 (antibody, human IgG1, kappa)
heavy 1: not shown
heavy 2: not shown
light: B1 light
notes: copies: 1 + 1 + 2
B12: GpH7-A5/GpH7-B3 variant S298_03V/GpL16-k0 (antibody, human IgG1, kappa)
heavy 1: not shown
heavy 2: not shown
light: B1 light
notes: copies: 1 + 1 + 2
B13: GpH7-A5/GpH7-B3 variant S298_01G/GpL16-k0 (antibody, human IgG1, kappa)
heavy 1: not shown
heavy 2: not shown
light: B1 light
notes: copies: 1 + 1 + 2
B14: GpH7-A5/GpH7-B3 variant S324_07I/GpL16-k0 (antibody, human IgG1, kappa)
heavy 1: not shown
heavy 2: not shown
light: B1 light
notes: copies: 1 + 1 + 2
B15: GpH7-A5/GpH7-B3 variant S324_01G/GpL16-k0 (antibody, human IgG1, kappa)
heavy 1: not shown
heavy 2: not shown
light: B1 light
notes: copies: 1 + 1 + 2
B16: GpH7-A5/GpH7-B3 variant S267_19Q/GpL16-k0 (antibody, human IgG1, kappa)
heavy 1: not shown
heavy 2: not shown
light: B1 light
notes: copies: 1 + 1 + 2
B17: GpH7-A5/GpH7-B3 variant S337_01G/GpL16-k0 (antibody, human IgG1, kappa)
heavy 1: not shown
heavy 2: not shown
light: B1 light
notes: copies: 1 + 1 + 2
B18: GpH7-A5/GpH7-B3 variant S324_06M/GpL16-k0 (antibody, human IgG1, kappa)
heavy 1: not shown
heavy 2: not shown
light: B1 light
notes: copies: 1 + 1 + 2
B19: GpH7-A5/GpH7-B3 variant S324_19Q/GpL16-k0 (antibody, human IgG1, kappa)
heavy 1: not shown
heavy 2: not shown
light: B1 light
notes: copies: 1 + 1 + 2
B20: GpH7-A5/GpH7-B3 variant S324_12R/GpL16-k0 (antibody, human IgG1, kappa)
heavy 1: not shown
heavy 2: not shown
light: B1 light
notes: copies: 1 + 1 + 2
B21: GpH7-A5/GpH7-B3 variant S298_16H/GpL16-k0 (antibody, human IgG1, kappa)
heavy 1: not shown
heavy 2: not shown
light: B1 light
notes: copies: 1 + 1 + 2
B22: GpH7-A5/GpH7-B3 variant S324_05P/GpL16-k0 (antibody, human IgG1, kappa)
heavy 1: not shown
heavy 2: not shown
light: B1 light
notes: copies: 1 + 1 + 2
B23: GpH7-A5/GpH7-B3 variant S324_09D/GpL16-k0 (antibody, human IgG1, kappa)
heavy 1: not shown
heavy 2: not shown
light: B1 light
notes: copies: 1 + 1 + 2
B24: GpH7-A5/GpH7-B3 variant S298_18N/GpL16-k0 (antibody, human IgG1, kappa)
heavy 1: not shown
heavy 2: not shown
light: B1 light
notes: copies: 1 + 1 + 2
B25: GpH7-A5/GpH7-B3 variant S298_07I/GpL16-k0 (antibody, human IgG1, kappa)
heavy 1: not shown
heavy 2: not shown
light: B1 light
notes: copies: 1 + 1 + 2
B26: GpH7-A5/GpH7-B3 variant S324_16H/GpL16-k0 (antibody, human IgG1, kappa)
heavy 1: not shown
heavy 2: not shown
light: B1 light
notes: copies: 1 + 1 + 2
B27: GpH7-A5/GpH7-B3 variant S298_14T/GpL16-k0 (antibody, human IgG1, kappa)
heavy 1: not shown
heavy 2: not shown
light: B1 light
notes: copies: 1 + 1 + 2
B28: GpH7-A5/GpH7-B3 variant S298_09D/GpL16-k0 (antibody, human IgG1, kappa)
heavy 1: not shown
heavy 2: not shown
light: B1 light
notes: copies: 1 + 1 + 2
B29: GpH7-A5/GpH7-B3 variant S267_01G/GpL16-k0 (antibody, human IgG1, kappa)
heavy 1: not shown
heavy 2: not shown
light: B1 light
notes: copies: 1 + 1 + 2
B30: GpH7-A5/GpH7-B3 variant S298_02A/GpL16-k0 (antibody, human IgG1, kappa)
heavy 1: not shown
heavy 2: not shown
light: B1 light
notes: copies: 1 + 1 + 2
B31: GpH7-A5/GpH7-B3 variant S324_08L/GpL16-k0 (antibody, human IgG1, kappa)
heavy 1: not shown
heavy 2: not shown
light: B1 light
notes: copies: 1 + 1 + 2
B32: GpH7-A5/GpH7-B3 variant S298_08L/GpL16-k0 (antibody, human IgG1, kappa)
heavy 1: not shown
heavy 2: not shown
light: B1 light
notes: copies: 1 + 1 + 2
B33: GpH7-A5/GpH7-B3 variant S324_02A/GpL16-k0 (antibody, human IgG1, kappa)
heavy 1: not shown
heavy 2: not shown
light: B1 light
notes: copies: 1 + 1 + 2
B34: GpH7-A5/GpH7-B3 variant S324_18N/GpL16-k0 (antibody, human IgG1, kappa)
heavy 1: not shown
heavy 2: not shown
light: B1 light
notes: copies: 1 + 1 + 2
B35: GpH7-A5/GpH7-B3 variant S324_20W/GpL16-k0 (antibody, human IgG1, kappa)
heavy 1: not shown
heavy 2: not shown
light: B1 light
notes: copies: 1 + 1 + 2
B36: GpH7-A5/GpH7-B3 variant S239_19Q/GpL16-k0 (antibody, human IgG1, kappa)
heavy 1: not shown
heavy 2: not shown
light: B1 light
notes: copies: 1 + 1 + 2
B37: GpH7-A5/GpH7-B3 variant S324_14T/GpL16-k0 (antibody, human IgG1, kappa)
heavy 1: not shown
heavy 2: not shown
light: B1 light
notes: copies: 1 + 1 + 2
B38: GpH7-A5/GpH7-B3 variant S267_09D/GpL16-k0 (antibody, human IgG1, kappa)
heavy 1: not shown
heavy 2: not shown
light: B1 light
notes: copies: 1 + 1 + 2
B39: GpH7-A5/GpH7-B3 variant S324_11K/GpL16-k0 (antibody, human IgG1, kappa)
heavy 1: not shown
heavy 2: not shown
light: B1 light
notes: copies: 1 + 1 + 2
B40: GpH7-A5/GpH7-B3 variant S298_06M/GpL16-k0 (antibody, human IgG1, kappa)
heavy 1: not shown
heavy 2: not shown
light: B1 light
notes: copies: 1 + 1 + 2
B41: GpH7-A5/GpH7-B3 variant S298_04F/GpL16-k0 (antibody, human IgG1, kappa)
heavy 1: not shown
heavy 2: not shown
light: B1 light
notes: copies: 1 + 1 + 2
B42: GpH7-A5/GpH7-B3 variant S298_15Y/GpL16-k0 (antibody, human IgG1, kappa)
heavy 1: not shown
heavy 2: not shown
light: B1 light
notes: copies: 1 + 1 + 2
B43: GpH7-A5/GpH7-B3 variant S267_06M/GpL16-k0 (antibody, human IgG1, kappa)
heavy 1: not shown
heavy 2: not shown
light: B1 light
notes: copies: 1 + 1 + 2
B44: GpH7-A5/GpH7-B3 variant S298_19Q/GpL16-k0 (antibody, human IgG1, kappa)
heavy 1: not shown
heavy 2: not shown
light: B1 light
notes: copies: 1 + 1 + 2

target: T1, FcγRIIIa (human, UniProt P08637 17-208); assay: SPR (Biacore);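 also: antibody variants captured on an SPR sensor chip, with FcγRIIIa passed over as analyte in HBS-EP+ buffer at 25 °C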
T1 construct: extracellular domain; also called 3a; FcγRIIIa extracellular domain
T1 sequence (P08637 other isoform, or with tags, fused parts or gaps): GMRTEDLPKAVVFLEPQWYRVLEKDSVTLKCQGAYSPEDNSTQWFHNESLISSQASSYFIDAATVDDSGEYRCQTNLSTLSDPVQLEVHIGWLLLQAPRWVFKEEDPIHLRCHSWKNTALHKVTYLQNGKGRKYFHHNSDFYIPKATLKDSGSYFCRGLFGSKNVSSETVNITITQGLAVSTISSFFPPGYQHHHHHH

Binder | He/Con 3a
B1 | 93 % of GpH7-A5/GpH7-B3/GpL16-k0
B2 | 52 % of GpH7-A5/GpH7-B3/GpL16-k0
B3 | 99.3 % of GpH7-A5/GpH7-B3/GpL16-k0
B4 | 108 % of GpH7-A5/GpH7-B3/GpL16-k0
B5 | 90.9 % of GpH7-A5/GpH7-B3/GpL16-k0
B6 | 101 % of GpH7-A5/GpH7-B3/GpL16-k0
B7 | 110 % of GpH7-A5/GpH7-B3/GpL16-k0
B8 | 50 % of GpH7-A5/GpH7-B3/GpL16-k0
B9 | 104 % of GpH7-A5/GpH7-B3/GpL16-k0
B10 | 52.1 % of GpH7-A5/GpH7-B3/GpL16-k0
B11 | 149 % of GpH7-A5/GpH7-B3/GpL16-k0
B12 | 103 % of GpH7-A5/GpH7-B3/GpL16-k0
B13 | 74.9 % of GpH7-A5/GpH7-B3/GpL16-k0
B14 | 101 % of GpH7-A5/GpH7-B3/GpL16-k0
B15 | 114 % of GpH7-A5/GpH7-B3/GpL16-k0
B16 | 64.3 % of GpH7-A5/GpH7-B3/GpL16-k0
B17 | 95.2 % of GpH7-A5/GpH7-B3/GpL16-k0
B18 | 124 % of GpH7-A5/GpH7-B3/GpL16-k0
B19 | 96.2 % of GpH7-A5/GpH7-B3/GpL16-k0
B20 | 98.1 % of GpH7-A5/GpH7-B3/GpL16-k0
B21 | 71.9 % of GpH7-A5/GpH7-B3/GpL16-k0
B22 | 72.3 % of GpH7-A5/GpH7-B3/GpL16-k0

Binder | He/Con 3a
B23 | 110 % of GpH7-A5/GpH7-B3/GpL16-k0
B24 | 51.4 % of GpH7-A5/GpH7-B3/GpL16-k0
B25 | 90.7 % of GpH7-A5/GpH7-B3/GpL16-k0
B26 | 113 % of GpH7-A5/GpH7-B3/GpL16-k0
B27 | 106 % of GpH7-A5/GpH7-B3/GpL16-k0
B28 | 62.7 % of GpH7-A5/GpH7-B3/GpL16-k0
B29 | 53.3 % of GpH7-A5/GpH7-B3/GpL16-k0
B30 | 151 % of GpH7-A5/GpH7-B3/GpL16-k0
B31 | 95.5 % of GpH7-A5/GpH7-B3/GpL16-k0
B32 | 69.2 % of GpH7-A5/GpH7-B3/GpL16-k0
B33 | 113 % of GpH7-A5/GpH7-B3/GpL16-k0
B34 | 103 % of GpH7-A5/GpH7-B3/GpL16-k0
B35 | 111 % of GpH7-A5/GpH7-B3/GpL16-k0
B36 | 53.8 % of GpH7-A5/GpH7-B3/GpL16-k0
B37 | 112 % of GpH7-A5/GpH7-B3/GpL16-k0
B38 | 179 % of GpH7-A5/GpH7-B3/GpL16-k0
B39 | 90.2 % of GpH7-A5/GpH7-B3/GpL16-k0
B40 | 87.2 % of GpH7-A5/GpH7-B3/GpL16-k0
B41 | 77.6 % of GpH7-A5/GpH7-B3/GpL16-k0
B42 | 80.6 % of GpH7-A5/GpH7-B3/GpL16-k0
B43 | 65.3 % of GpH7-A5/GpH7-B3/GpL16-k0
B44 | 70.6 % of GpH7-A5/GpH7-B3/GpL16-k0
